For three substances, response (Arbitrary units) results are on record in publication PMC6491591.

In experiment [1] the target is endogenous Protein Kinase A catalytic subunit (PKA-Cα) of COS-1 cells. As to the kind of experiment: co-immunoprecipitation (IP: PKA-Cα antibody), western blot band intensity quantified with ImageJ. The note with it: COS-1 cells expressing GRTH-V5, parent: est. 1.1, read off a plot. In general terms: A western blot detects proteins with antibodies after separation by electrophoresis.

For experiment [2] the target is unchanged. Put plainly: co-immunoprecipitation (IP: V5 antibody), western blot band intensity quantified with ImageJ. The note with it: COS-1 cells expressing GRTH-V5, parent: est. 1.1, read off a plot.

As for “Gonadotropin Regulated Testicular Helicase (GRTH/DDX25), wild type, V5-His tagged (from UniProt Q9UHL0) E165A”, the response (Arbitrary units) in experiment [1] and in experiment [2] was 0.88 throughout.

Consider “Gonadotropin Regulated Testicular Helicase (GRTH/DDX25), wild type, V5-His tagged (from UniProt Q9UHL0) E165A; K240A”, for which the response (Arbitrary units) in experiment [1] worked out at 0.76; in experiment [2], 0.68.

Consider “Gonadotropin Regulated Testicular Helicase (GRTH/DDX25), wild type, V5-His tagged (from UniProt Q9UHL0) T239A”, for which the response (Arbitrary units) in experiment [1] and in experiment [2] was 0.34 in each case.
